Consider one substance from PMC10834949.

For test [1], the target named is Aβ42 fibrils. Kind of test: SPR; sonicated Aβ42 fibrils immobilised by amine coupling on a C1 chip (BIAcore 3000); R221E Bri2 BRICHOS injected at 0.195-50 uM in HBS-E (10 mM HEPES, 150 mM NaCl, 0.2 mM EDTA, pH 7.5), 30 uL/min; two-phase association and two-phase dissociation model, global fit; apparent constants. Background: SPR reads the build-up and loss of mass on a sensor chip optically.

Test [2] deals with Aβ42 fibrils. Briefly: co-sedimentation; sample of co-incubated BRICHOS-Aβ42 fibrils centrifuged; BRICHOS in the supernatant measured by SDS-PAGE.
The target in test [3] is Aβ42 fibrils. Briefly: NMR titration; solution 1H-15N HSQC of 74 uM 15N-labelled BRICHOS before and after adding sonicated unlabelled Aβ42 fibrils at 1:1 (related to monomeric Aβ42); 20 mM sodium phosphate, 0.2 mM EDTA, pH 7.4, 25 °C; loss of signal intensity taken as the bound population.

Regarding “recombinant human Bri2 BRICHOS R221E monomer (domain or fragment)”, in test [1], the KD app of the strong phase (two-phase model) worked out at 12.9 nM. Moreover, in test [2], the percent of BRICHOS in the soluble fraction worked out at 95% and the percent of total BRICHOS bound fell in the range of 5 to 10%. In addition, in test [3], the percent of HSQC signal intensity left after adding fibrils at 1:1 was 90%, the percent of total BRICHOS bound was in the range of 5 to 10% and the relative signal attenuation (population of bound BRICHOS) came to 10%.
